From patent publication US20230416365A1 (Hoffmann-La Roche, published 2023)
One block for each binder: values may come before it.

Tests used:
[1] = target: T1, human FAP on 3T3-huFAP cells (clone 19) (human, UniProt Q12884 1-760); assay: flow cytometry on 3T3-huFAP cells, median fluorescence intensity
[2] = target: T1, human FAP on 3T3-huFAP cells (clone 19); assay: flow cytometry on 3T3-huFAP cells, PE anti-human secondary antibody, median fluorescence intensity
[3] = target: T2, human CD28 on CHO cells (parental cell line CHO-k1 ATCC #CCL-61, modified to stably overexpress human CD28) (human, UniProt P10747 19-220); assay: flow cytometry on CHO-k1 cells expressing human CD28, PE anti-human secondary antibody, MFI
T2 construct: also called hu CD28; CHO-hCD28

[4] = target: T3, human CEA (CEACAM5), form in the assay not stated (human, UniProt P06731 35-685, limits assumed); assay: SPR
T3 sequence: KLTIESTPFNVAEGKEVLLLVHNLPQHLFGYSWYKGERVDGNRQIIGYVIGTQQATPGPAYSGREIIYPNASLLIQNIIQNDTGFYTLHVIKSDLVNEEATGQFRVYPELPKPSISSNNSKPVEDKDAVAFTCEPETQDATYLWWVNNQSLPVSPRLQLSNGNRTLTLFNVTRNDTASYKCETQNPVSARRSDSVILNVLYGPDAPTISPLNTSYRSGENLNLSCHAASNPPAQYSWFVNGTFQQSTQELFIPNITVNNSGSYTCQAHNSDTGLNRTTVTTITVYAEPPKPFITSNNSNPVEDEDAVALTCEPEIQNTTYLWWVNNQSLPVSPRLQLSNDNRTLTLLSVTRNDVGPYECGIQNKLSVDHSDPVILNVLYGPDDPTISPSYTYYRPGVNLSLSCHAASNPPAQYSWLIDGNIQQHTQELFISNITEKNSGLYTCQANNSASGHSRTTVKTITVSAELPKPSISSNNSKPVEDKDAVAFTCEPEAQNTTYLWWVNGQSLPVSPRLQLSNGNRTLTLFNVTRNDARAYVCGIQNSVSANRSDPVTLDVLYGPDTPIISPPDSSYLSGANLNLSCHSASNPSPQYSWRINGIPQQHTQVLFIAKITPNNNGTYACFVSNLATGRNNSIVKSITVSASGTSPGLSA

[5] = target: T2, human CD28 on CHO cells (parental cell …); assay: flow cytometry on CHO-k1 cells expressing human CD28, PE anti-human secondary antibody, MFI; remark: listed apart in the source
[6] = target: T4, human HER3 on T-47D cells (human, UniProt P21860 20-1342); assay: flow cytometry on T-47D cells, PE anti-human secondary antibody, MFI
T4 construct: also called ErbB3

[7] = target: T5, recombinant CD79b-His (Sinobiological #29750-H08H) (UniProt P40259 29-159); assay: SPR, Biacore T200, CD79b-His captured by anti-penta-His on CM5, bispecific as analyte
T5 construct: bought; whole entry named, limits unknown; also called soluble recombinant CD79b-His
T5 sequence (looked up): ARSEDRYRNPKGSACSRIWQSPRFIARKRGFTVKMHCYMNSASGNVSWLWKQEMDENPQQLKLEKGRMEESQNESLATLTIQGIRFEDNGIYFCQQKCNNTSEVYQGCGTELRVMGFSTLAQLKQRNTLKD

B2: FAP-CD28SA 2+2 (P1AD4493) (bispecific antibody, human IgG1, kappa, L234A L235A)
CD28(SA) light chain VL-CL RK: not shown
heavy chain CD28(SA) VHCH1 EE - Fc PGLALA - FAP(4B9) VHCL: not shown
FAP(4B9) VLCH1: EIVLTQSPGTLSLSPGERATLSCRASQSVTSSYLAWYQQKPGQAPRLLINVGSRRATGIPDRFSGSGSGTDFTLTISRLEPEDFAVYYCQQGIMLPPTFGQGTKVEIKSSASTKGPSVFPLAPSSKSTSGGTAALGCLVKDYFPEPVTVSWNSGALTSGVHTFPAVLQSSGLYSLSSVVTVPSSSLGTQTYICNVNHKPSNTKVDKKVEPKSCD
notes: bivalent for CD28 and bivalent for FAP; copy numbers follow from the 2+2 format; also called Molecule F; FAP(4B9)-CD28(SA) 2+2
EC50 (read off the curve) [2]: ~2 nM
EC50 (read off the curve) [1]: ~2 nM

B3: EpCAM (MT201)-CD28 (SA_Variant 15) 1+1 format (Molecule 14A) (bispecific antibody, human IgG1, kappa, L234A L235A)
heavy 1: not shown
light 1: QVQLVQSGAEVKKPGASVKVSCKASGYTFTSYYIHWVRQAPGQGLEWIGSIYPGNVQTNYNEKFKDRATLTVDTSISTAYMELSRLRSDDTAVYFCTRSHYGLDWNFDVWGQGTTVTVSSASVAAPSVFIFPPSDEQLKSGTASVVCLLNNFYPREAKVQWKVDNALQSGNSQESVTEQDSKDSTYSLSSTLTLSKADYEKHKVYACEVTHQGLSSPVTKSFNRGEC
heavy 2: not shown
light 2: ELQMTQSPSSLSASVGDRVTITCRTSQSISSYLNWYQQKPGQPPKLLIYWASTRESGVPDRFSGSGSGTDFTLTISSLQPEDSATYYCQQSYDIPYTFGQGTKLEIKRTVAAPSVFIFPPSDRKLKSGTASVVCLLNNFYPREAKVQWKVDNALQSGNSQESVTEQDSKDSTYSLSSTLTLSKADYEKHKVYACEVTHQGLSSPVTKSFNRGEC
notes: huIgG1 PG-LALA CrossFab; also called P1AE9051; EpCAM-CD28
EC50 (read off the curve) [3]: ~8 nM

B6: CD79b (huMA79b.v28)-CD28 (SA_v15) 1+1 (Molecule F of Example 18; 18F) (bispecific antibody, human IgG1, kappa, L234A L235A)
heavy 1: not shown
light 1: not shown
heavy 2: DIQLTQSPSSLSASVGDRVTITCKASQSVDYEGDSFLNWYQQKPGKAPKLLIYAASNLESGVPSRFSGSGSGTDFTLTISSLQPEDFATYYCQQSNEDPLTFGQGTKVEIKSSASTKGPSVFPLAPSSKSTSGGTAALGCLVKDYFPEPVTVSWNSGALTSGVHTFPAVLQSSGLYSLSSVVTVPSSSLGTQTYICNVNHKPSNTKVDKKVEPKSCDKTHTCPPCPAPEAAGGPSVFLFPPKPKDTLMISRTPEVTCVVVDVSHEDPEVKFNWYVDGVEVHNAKTKPREEQYNSTYRVVSVLTVLHQDWLNGKEYKCKVSNKALGAPIEKTISKAKGQPREPQVCTLPPSRDELTKNQVSLSCAVKGFYPSDIAVEWESNGQPENNYKTTPPVLDSDGSFFLVSKLTVDKSRWQQGNVFSCSVMHEALHNHYTQKSLSLSP
light 2: EVQLVESGGGLVQPGGSLRLSCAASGYTFSSYWIEWVRQAPGKGLEWIGEILPGGGDTNYNEIFKGRATFSADTSKNTAYLQMNSLRAEDTAVYYCTRRVPIRLDYWGQGTLVTVSSASVAAPSVFIFPPSDEQLKSGTASVVCLLNNFYPREAKVQWKVDNALQSGNSQESVTEQDSKDSTYSLSSTLTLSKADYEKHKVYACEVTHQGLSSPVTKSFNRGEC
notes: huIgG1 PG-LALA CrossFab; also called P1AE9039; CD79b-CD28
Kd [7]: 76 nM
koff [7]: 0.0195 s⁻¹
kon [7]: 257000 M⁻¹ s⁻¹

B8: FAP-CD28CA 2+2 (P1AD8968) (bispecific antibody)
heavy chain CD28(mAb 9.3) VHCH EE - Fc PGLALA - FAP(4B9) VHCL: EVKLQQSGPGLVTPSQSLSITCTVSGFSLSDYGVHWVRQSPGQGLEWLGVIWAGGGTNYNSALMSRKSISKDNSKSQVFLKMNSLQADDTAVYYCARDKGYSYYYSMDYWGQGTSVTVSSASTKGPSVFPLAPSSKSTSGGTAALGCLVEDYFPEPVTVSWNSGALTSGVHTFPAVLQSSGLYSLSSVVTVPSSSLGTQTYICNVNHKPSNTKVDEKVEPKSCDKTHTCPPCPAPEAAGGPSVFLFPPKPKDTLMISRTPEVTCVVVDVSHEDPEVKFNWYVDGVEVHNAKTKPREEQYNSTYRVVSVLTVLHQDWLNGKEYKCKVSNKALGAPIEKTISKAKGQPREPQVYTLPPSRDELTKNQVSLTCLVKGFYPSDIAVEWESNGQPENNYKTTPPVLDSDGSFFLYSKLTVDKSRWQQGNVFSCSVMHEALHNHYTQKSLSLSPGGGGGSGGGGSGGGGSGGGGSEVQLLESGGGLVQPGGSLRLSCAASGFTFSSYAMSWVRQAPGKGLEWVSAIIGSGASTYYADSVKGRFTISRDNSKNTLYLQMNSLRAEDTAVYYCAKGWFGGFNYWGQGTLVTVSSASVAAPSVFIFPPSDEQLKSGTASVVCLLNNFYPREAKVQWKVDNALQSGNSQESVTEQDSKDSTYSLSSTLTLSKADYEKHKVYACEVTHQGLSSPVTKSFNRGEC
CD28(mAb 9.3) light chain VLCL RK: DIELTQSPASLAVSLGQRATISCRASESVEYYVTSLMQWYQQKPGQPPKLLIFAASNVESGVPARFSGSGSGTNFSLNIHPVDEDDVAMYFCQQSRKVPYTFGGGTKLEIKRTVAAPSVFIFPPSDRKLKSGTASVVCLLNNFYPREAKVQWKVDNALQSGNSQESVTEQDSKDSTYSLSSTLTLSKADYEKHKVYACEVTHQGLSSPVTKSFNRGEC
FAP(4B9) VLCH1: EIVLTQSPGTLSLSPGERATLSCRASQSVTSSYLAWYQQKPGQAPRLLINVGSRRATGIPDRFSGSGSGTDFTLTISRLEPEDFAVYYCQQGIMLPPTFGQGTKVEIKSSASTKGPSVFPLAPSSKSTSGGTAALGCLVKDYFPEPVTVSWNSGALTSGVHTFPAVLQSSGLYSLSSVVTVPSSSLGTQTYICNVNHKPSNTKVDKKVEPKSC
notes: also called Molecule R; FAP(4B9)-CD28(mAb9.3) 2+2
EC50 (read off the curve) [2]: ~1 nM

Now from value to binder:

binding result [1]: binds
B1: FAP-CD28 1+4 (bispecific antibody, human IgG1, kappa, L234A L235A)
CD28(SA) light chain: not shown
heavy chain CD28(SA) VHCH-VHCH - Fc knob - FAP(4B9) VH: not shown
heavy chain CD28(SA) VHCH-VHCH - Fc hole - FAP(4B9) VL: QVQLVQSGAEVKKPGASVKVSCKASGYTFTSYYIHWVRQAPGQGLEWIGCIYPGNVNTNYNEKFKDRATLTVDTSISTAYMELSRLRSDDTAVYFCTRSHYGLDWNFDVWGQGTTVTVSSASTKGPSVFPLAPSSKSTSGGTAALGCLVKDYFPEPVTVSWNSGALTSGVHTFPAVLQSSGLYSLSSVVTVPSSSLGTQTYICNVNHKPSNTKVDKKVEPKSCDGGGGSGGGGSQVQLVQSGAEVKKPGASVKVSCKASGYTFTSYYIHWVRQAPGQGLEWIGCIYPGNVNTNYNEKFKDRATLTVDTSISTAYMELSRLRSDDTAVYFCTRSHYGLDWNFDVWGQGTTVTVSSASTKGPSVFPLAPSSKSTSGGTAALGCLVKDYFPEPVTVSWNSGALTSGVHTFPAVLQSSGLYSLSSVVTVPSSSLGTQTYICNVNHKPSNTKVDKKVEPKSCDKTHTCPPCPAPEAAGGPSVFLFPPKPKDTLMISRTPEVTCVVVDVSHEDPEVKFNWYVDGVEVHNAKTKPREEQYNSTYRVVSVLTVLHQDWLNGKEYKCKVSNKALGAPIEKTISKAKGQPREPQVCTLPPSRDELTKNQVSLSCAVKGFYPSDIAVEWESNGQPENNYKTTPPVLDSDGSFFLVSKLTVDKSRWQQGNVFSCSVMHEALHNHYTQKSLSLSPGGGGGSGGGGSGGGGSGGGGSEIVLTQSPGTLSLSPGERATLSCRASQSVTSSYLAWYQQKPGQAPRLLINVGSRRATGIPDRFSGSGSGTDFTLTISRLEPEDFAVYYCQQGIMLPPTFGQGTKVEIK
notes: tetravalent for CD28, monovalent for FAP; also called Molecule D; FAP(4B9)-CD28(SA) 1+4

Kd [4]: ~2.5 nM
B4: humanized CEA antibody A5H1EL1D (format in the assay not stated) (antibody, V domains shown)
VH: EVQLLESGGGLVQPGGSLRLSCAASGFTFTDYYMNWVRQAPGKGLEWLGFIGNKANAYTTEYSASVKGRFTISRDKSKNTLYLQMNSLRAEDTATYYCTRDRGLRFYFDYWGQGTTVTVSS
VL: EIVLTQSPATLSLSPGERATLSCRASSSVTYIHWYQQKPGQAPRSWIYATSNLASGIPARFSGSGSGTDFTLTISSLEPEDFAVYYCQHWSSKPPTFGQGTKLEIK
notes: heavy chain with VH variant 3-23A5-1E and Ckappa light chain with VL variant A5-L1D; also called huA5B7

binding result [5]: binds
EC50 (read off the curve) [6]: ~1 nM
B5: HER3(lumretuzumab)-CD28 (SA_Variant 15) 1+1 format (Molecule 14B) (bispecific antibody, human IgG1, kappa, L234A L235A)
heavy 1: not shown
light 1: not shown
heavy 2: DIVMTQSPDSLAVSLGERATINCKSSQSVLNSGNQKNYLTWYQQKPGQPPKLLIYWASTRESGVPDRFSGSGSGTDFTLTISSLQAEDVAVYYCQSDYSYPYTFGQGTKLEIKSSASTKGPSVFPLAPSSKSTSGGTAALGCLVKDYFPEPVTVSWNSGALTSGVHTFPAVLQSSGLYSLSSVVTVPSSSLGTQTYICNVNHKPSNTKVDKKVEPKSCDKTHTCPPCPAPEAAGGPSVFLFPPKPKDTLMISRTPEVTCVVVDVSHEDPEVKFNWYVDGVEVHNAKTKPREEQYNSTYRVVSVLTVLHQDWLNGKEYKCKVSNKALGAPIEKTISKAKGQPREPQVCTLPPSRDELTKNQVSLSCAVKGFYPSDIAVEWESNGQPENNYKTTPPVLDSDGSFFLVSKLTVDKSRWQQGNVFSCSVMHEALHNHYTQKSLSLSP
light 2: QVQLVQSGAEVKKPGASVKVSCKASGYTFRSSYISWVRQAPGQGLEWMGWIYAGTGSPSYNQKLQGRVTMTTDTSTSTAYMELRSLRSDDTAVYYCARHRDYYSNSLTYWGQGTLVTVSSASVAAPSVFIFPPSDEQLKSGTASVVCLLNNFYPREAKVQWKVDNALQSGNSQESVTEQDSKDSTYSLSSTLTLSKADYEKHKVYACEVTHQGLSSPVTKSFNRGEC
notes: huIgG1 PG-LALA CrossFab; also called P1AF0151; HER3-CD28

Kd [4]: ~0.8 nM
B7: murine CEA antibody A5B7 (parental) (antibody, V domains shown)
VH: EVKLVESGGGLVQPGGSLRLSCATSGFTFTDYYMNWVRQPPGKALEWLGFIGNKANGYTTEYSASVKGRFTISRDKSQSILYLQMNTLRAEDSATYYCTRDRGLRFYFDYWGQGTTLTVSS
VL: QTVLSQSPAILSASPGEKVTMTCRASSSVTYIHWYQQKPGSSPKSWIYATSNLASGVPARFSGSGSGTSYSLTISRVEAEDAATYYCQHWSSKPPTFGGGTKLEIK
notes: also called parental murine A5B7 antibody; parental chimeric antibody
